The values below come from the supplement of paper PMC12783771.

± gives the standard deviation of the averaged measurements.

The labels stand for the following.
B1: library; numbered along this chain (parent)
chain: MNIQIGELAKRTACPVVTIRFYEQEGLLPPPGRSRGNFRLYGEEHVERLQFIRHCRSLDMPLSDVRTLLSYRKRPDQDCGEVNMLLDEHIRQVESRIGALLELKHHLVELREACSGARPAQSCGILQGLSDCVCDTRGTTAHPSD

In data set [1] the parent is B1. The experiment in a line: sfGFP reporter fluorescence (15 h) (µM FITC); higher = higher leak. The conditions noted are these: library round: Round 0; ligand: none. A digest of the protocol:
(§1)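 Linear PbrR templates were made by PCR, normalized to 5 nM with an Echo, and expressed in BL21 Star (DE3) PANOx-SP extract with the pPbrR-sfGFP reporter plasmid and 30 μg/mL GamS. Echo-assembled 1 μL reactions held 1 µM lead chloride, 30 µM zinc acetate or no metal and were incubated 15 hr at 30 °C. Endpoint sfGFP fluorescence was read on a Synergy Neo2 and expressed as µM FITC using standard curves. Up to three biological replicates were run.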

In data set [2] the parent is B1. As to the kind of experiment: sfGFP reporter fluorescence (15 h) (µM FITC); higher = stronger transcriptional activation. The conditions noted are these: library round: Round 0. Put shortly: as §1

For F51A, the sfGFP reporter fluorescence in data set [1] stood at 0.06597 ± 0.00052; in data set [2] (ligand: 1 µM Pb) it was 0.0621 ± 0.0023; in data set [2] (ligand: 30 µM Zn), 0.16 ± 0.0083.
The corresponding values for M60L D64K are 0.916 ± 0.074, 1.99 ± 0.24 and 4.629 ± 0.03.
In the same order, the values of M60L K104V L107C are 1.11 ± 0.099, 3.04 ± 0.88 and 2.76 ± 0.63.
In the case of M60L K104V G128M, the sfGFP reporter fluorescence was 0.69 ± 0.028 in data set [1], 1.46 ± 0.085 in data set [2] (ligand: 1 µM Pb) and 2.91 ± 0.039 in data set [2] (ligand: 30 µM Zn).
The corresponding values for M60L K104V G128I are 0.312 ± 0.017, 1.27 ± 0.04 and 3.28 ± 0.16.
For M60L P61N L107C, the sfGFP reporter fluorescence was found to be 1.39 ± 0.39 in data set [1], 2.42 ± 0.21 in data set [2] (ligand: 1 µM Pb) and 5.07 ± 0.26 in data set [2] (ligand: 30 µM Zn).
The corresponding values for L49A are 0.0619 ± 0.001, 0.0614 ± 0.0013 and 0.0969 ± 0.011.
As for L58Q, the results for the sfGFP reporter fluorescence in data set [1], in data set [2] (ligand: 1 µM Pb) and in data set [2] (ligand: 30 µM Zn) were 0.0596 ± 0.0018, 0.05901 ± 0.00052 and 0.0711 ± 0.0021, respectively.
As to L58T, the figures for the sfGFP reporter fluorescence in data set [1], in data set [2] (ligand: 1 µM Pb) and in data set [2] (ligand: 30 µM Zn) were 0.0588 ± 0.0018, 0.05864 ± 0.00052 and 0.05644 ± 0.00052, respectively.
For the variant L58F, the values for the sfGFP reporter fluorescence in data set [1], in data set [2] (ligand: 1 µM Pb) and in data set [2] (ligand: 30 µM Zn) were 0.0592 ± 0.0018, 0.0731 ± 0.0013 and 0.261 ± 0.027, respectively.
The corresponding values for L58G are 0.0548 ± 0.00078, 0.0548 ± 0.0013 and 0.052 ± 0.001.
The corresponding values for L58S are 0.05717 ± 0.00052, 0.0586 and 0.0563 ± 0.0013.
In the same order, the values of L58D are 0.0599 ± 0.0023, 0.0623 and 0.0608 ± 0.0015.
As to L58P, the results for the sfGFP reporter fluorescence in data set [1], in data set [2] (ligand: 1 µM Pb) and in data set [2] (ligand: 30 µM Zn) were 0.0594 ± 0.0015, 0.0601 ± 0.001 and 0.0605 ± 0.001, respectively.
In the same order, the values of L58A are 0.0601 ± 0.001, 0.05681 ± 0.00052 and 0.0563 ± 0.0049.
As to L58W, the figures for the sfGFP reporter fluorescence in data set [1], in data set [2] (ligand: 1 µM Pb) and in data set [2] (ligand: 30 µM Zn) were 0.0629 ± 0.0034, 0.0685 ± 0.0026 and 0.076 ± 0.0023, respectively.
In the same order, the values of L58M are 0.0583, 0.0581 ± 0.00078 and 0.0748 ± 0.0015.
For L58V, the sfGFP reporter fluorescence in data set [1] turned out to be 0.0583 ± 0.001; in data set [2] (ligand: 1 µM Pb), 0.0568 ± 0.0021; in data set [2] (ligand: 30 µM Zn), 0.061 ± 0.0018.
With L58I, the figures for the sfGFP reporter fluorescence in data set [1], in data set [2] (ligand: 1 µM Pb) and in data set [2] (ligand: 30 µM Zn) were 0.05443 ± 0.00026, 0.0546 ± 0.001 and 0.05864 ± 0.00052, respectively.
In the same order, the values of L58H are 0.05901 ± 0.00052, 0.0594 ± 0.0021 and 0.0656 ± 0.0036.
In the same order, the values of L58Y are 0.0784 ± 0.0062, 0.229 ± 0.011 and 0.606 ± 0.036.
In the same order, the values of L58R are 0.06139 ± 0.00026, 0.0651 ± 0.0029 and 0.0662 ± 0.00078.
As to L58N, the sfGFP reporter fluorescence in data set [1] worked out at 0.05644 ± 0.00052; in data set [2] (ligand: 1 µM Pb), 0.05791 ± 0.00052; in data set [2] (ligand: 30 µM Zn), 0.0548 ± 0.0023.
For L58C, the sfGFP reporter fluorescence in data set [1] turned out to be 0.05846 ± 0.00026; in data set [2] (ligand: 1 µM Pb), 0.05772 ± 0.00026; in data set [2] (ligand: 30 µM Zn), 0.06121 ± 0.00052.
Turning to L58K, the sfGFP reporter fluorescence in data set [1] amounted to 0.0629 ± 0.0013; in data set [2] (ligand: 1 µM Pb), 0.06908 ± 0.00026; in data set [2] (ligand: 30 µM Zn), 0.0735 ± 0.0034.
Turning to L58E, the sfGFP reporter fluorescence in data set [1] worked out at 0.0619 ± 0.001; in data set [2] (ligand: 1 µM Pb), 0.0625 ± 0.0013; in data set [2] (ligand: 30 µM Zn), 0.064 ± 0.0018.
In the same order, the values of R53A are 0.0614 ± 0.0018, 0.06652 ± 0.00026 and 0.487 ± 0.074.
For the variant H45A, the sfGFP reporter fluorescence in data set [1] amounted to 0.0599 ± 0.0018; in data set [2] (ligand: 1 µM Pb), 0.07275 ± 0.00026; in data set [2] (ligand: 30 µM Zn), 0.687 ± 0.088.
Regarding D59A, the sfGFP reporter fluorescence was determined as 0.0693 ± 0.0036 in data set [1], 0.0755 ± 0.001 in data set [2] (ligand: 1 µM Pb) and 0.291 ± 0.014 in data set [2] (ligand: 30 µM Zn).
In the same order, the values of M60L D64K G128I are 2.06 ± 0.074, 3.47 ± 0.32 and 4.32 ± 0.22.
In the same order, the values of M60L D64K G128M are 3.44 ± 0.06, 4.33 ± 0.25 and 4.46 ± 0.12.
As to E47A, the sfGFP reporter fluorescence was found to be 0.0612 in data set [1], 0.0779 ± 0.0049 in data set [2] (ligand: 1 µM Pb) and 0.791 ± 0.039 in data set [2] (ligand: 30 µM Zn).
On to M60L K104V, for which the sfGFP reporter fluorescence in data set [1] stood at 0.255 ± 0.0057; in data set [2] (ligand: 1 µM Pb), 1.1 ± 0.067; in data set [2] (ligand: 30 µM Zn) it was 3.17 ± 0.1.
As to M60L P61N G128I, the sfGFP reporter fluorescence was found to be 0.436 ± 0.043 in data set [1], 1.55 ± 0.032 in data set [2] (ligand: 1 µM Pb) and 3.7563 ± 0.0021 in data set [2] (ligand: 30 µM Zn).
On to M60L P61N G128M, for which the sfGFP reporter fluorescence in data set [1] stood at 0.822 ± 0.13; in data set [2] (ligand: 1 µM Pb), 1.91 ± 0.38; in data set [2] (ligand: 30 µM Zn), 3.32 ± 0.64.
For the variant R39Q, the sfGFP reporter fluorescence in data set [1] was 0.0612 ± 0.001; in data set [2] (ligand: 1 µM Pb), 0.0599 ± 0.0018; in data set [2] (ligand: 30 µM Zn) it was 0.0583 ± 0.001.
Take R39M: the sfGFP reporter fluorescence in data set [1] came to 0.06139 ± 0.00026; in data set [2] (ligand: 1 µM Pb), 0.0616 ± 0.0026; in data set [2] (ligand: 30 µM Zn) it was 0.0583.
In the same order, the values of R39S are 0.0607 ± 0.00078, 0.0603 ± 0.0013 and 0.0592 ± 0.0023.
With R39H, the sfGFP reporter fluorescence in data set [1] was found to be 0.0625 ± 0.0018; in data set [2] (ligand: 1 µM Pb), 0.0652 ± 0.0031; in data set [2] (ligand: 30 µM Zn), 0.0663 ± 0.0047.
In the same order, the values of R39K are 0.0612 ± 0.0015, 0.0623 ± 0.0036 and 0.14 ± 0.022.
In the same order, the values of R39N are 0.06102 ± 0.00026, 0.0597 ± 0.0015 and 0.0605.
The corresponding values for R39D are 0.0603 ± 0.0018, 0.0608 ± 0.0026 and 0.0597 ± 0.0036.
R39E: the sfGFP reporter fluorescence in data set [1] was 0.0614 ± 0.0013; in data set [2] (ligand: 1 µM Pb), 0.0634; in data set [2] (ligand: 30 µM Zn) it was 0.066 ± 0.0015.
The corresponding values for R39Y are 0.05992 ± 0.00026, 0.0605 ± 0.0036 and 0.0608 ± 0.0047.
